Key:
liver cancer cell Hep-G2 = test: MTT assay, proliferation of liver cancer cell Hep-G2; type: cell-based
Description: (§1) The MTT assay was used to detect the inhibitory effect of the integrin blocker fusion protein obtained in Example 1 on the proliferation of various tumor cells, including melanoma cell B16F10, gastric cancer cell MGC-803, lung cancer cell A549, liver cancer cell Hep-G2, breast cancer cell MDA-MB-231, colon cancer cell HCT-116, human glioma U87, and cervical cancer cell Hela.
(§2) The tumor cells were cultured in a 5% CO2 incubator at 37° C. to a density of 90% or more, and collected by trypsinization. The cells were resuspended in the culture liquid and counted under a microscope. The cell concentration was adjusted to 3.0×10^4 cells/mL. The cell suspension was inoculated into a 96-well plate at 100 μL per well and cultured overnight in a 5% CO2 incubator at 37° C. […] After the cells were fully adhered, each dilution was added to a 96-well plate at 100 μL per well, respectively. […] 20 μL of 5 mg/mL MTT was added to each well of a 96-well plate, and incubation was continued for 4 hours. The medium was aspirated and 100 μL of DMSO per well were added to dissolve. The absorbance was measured at 570 nm with a microplate reader with a reference wavelength of 630 nm, and the proliferation inhibition (PI) was calculated. The formula is as follows: […]
(§3) where Ntest is the OD value of the test group and Ncontrol is the OD value of the blank control group.
(§4) The test was repeated 5 times independently. The results obtained from the test were calculated as mean±SD, and statistical t-test was performed. P<0.05 was considered as a significant difference, and P<0.01 was considered as an extremely significant difference.

[1] = system: breast cancer cell MDA-MB-231; test: MTT assay, proliferation of breast cancer cell MDA-MB-231; type: cell-based
Description: as §1, §2, §3, §4

[2] = system: toe swelling in rat induced by carrageenan; test: Acute inflammation of toe swelling in rat induced by carrageenan; type: in vivo; details: for Swelling degree 1 h: 1 h after carrageenan; for Swelling degree 1 h / Swelling degree 3 h / Swelling degree 5 h / Swelling degree 7 h: rat foot; for Swelling degree 3 h: 3 h after carrageenan; for Swelling degree 5 h: 5 h after carrageenan; for Swelling degree 7 h: 7 h after carrageenan
Description: 80 SD rats were randomly divided into 8 groups with 10 mice for each group. […] The drug was administered once by injection, and the model group was given an equal volume of physiological saline and fed normally. On the third day, 0.1 mL of 1% carrageenan was injected subcutaneously into the right hind toes of the rats to induce inflammation. The foot volume was measured at 1 h, 3 h, 5 h, and 7 h after inflammation. The swelling degree of the foot was calculated according to the following formula: the swelling degree of the foot (mL)=the volume of the foot after inflammation—the volume before inflammation. The number of milliliters of spilled liquid was recorded (method: the protruding point of the right joint was circled with a ballpoint pen and used as a measurement mark, and the right hind feet of the rat were sequentially placed in the volume measuring device, so that the hind limbs were exposed outside the cylinder, and the depth of the immersion was limited to the overlap of the circle and the liquid level. After the foot entered the liquid, the liquid level was raised, and the volume of the spilled liquid was the volume of the right hind foot of the rat, and the normal volume of the right hind foot of each rat is sequentially determined).

[3] = system: choroidal blood flow in rabbit eyes; test: Choroidal blood flow in rabbit eyes (color microsphere technique); type: in vivo; details: 128 μg intravitreal injection; for Blood flow: rabbit eyes with high intraocular pressure
Description: New Zealand white rabbits with weight of 2.5-3.0 kg were randomly divided into […], which were labeled as a control group, and fusion protein I, protein II, protein III, protein IV, and protein V groups. White rabbits in each group were anesthetized with 35 mg/kg xylazine via intramuscular injection, and then anesthesia was maintained with half of the initial amount via intramuscular injection per hour. The intraocular pressure of the left eye was increased to 40 mmHg, under which the blood flow can be reduced to ⅓ of the normal value. The left ventricle was cannulated through right carotid artery for injection of microspheres (for the calculation of ocular blood flow), and the femoral artery was cannulated for blood collection. Each group was given physiological saline, 128 μg of fusion protein I, 128 μg of protein II, 128 μg of protein III, 128 μg of protein IV, and 128 μg of protein V via intravitreal injection. The ocular blood flow of rabbit eyes with high intraocular pressure was measured by a color microsphere technique at 0, 30, and 60 minutes after administration. At each time point, 0.2 mL (about 2 million) of microspheres were injected. Immediately after the microspheres were injected, blood was collected through the femoral artery for 60 seconds, and placed in a heparinized anticoagulant tube, and the amount of blood collected was recorded. After the last blood collection, the animals were sacrificed with 100 mg/kg phenobarbital via intravenous infusion. The eyeballs were removed, and the retina, choroid, iris and ciliary body were separated, and the tissue weight was recorded. The tissue blood flow at each time point was calculated with the following formula: Qm=(Cm×Qr)/Cr, where Qm represented tissue blood flow in μL/min/mg; Cm was the number of microspheres per milligram of tissue; Qr was blood flow in μL/min; and Cr was the number of blood microspheres as a reference.

B1: Protein II: IgG2-Fc linked to antiangiogenesis polypeptide EDSM-Y via a flexible linker; SEQ ID NO: 17 (protein)
chain: ERKCCVECPPCPAPPVAGPSVFLFPPKPKDTLMISRTPEVTCVVVDVSHEDPEVQFNWYVDGVEVHNAKTKPREEQFNSTFRVVSVLTVVHQDWLNGKEYKCKVSNKGLPAPIEKTISKTKGQPREPQVYTLPPSREEMTKNQVSLTCLVKGFYPSDISVEWESNGQPENNYKTTPPMLDSDGSFFLYSKLTVDKSRWQQGNVFSCSVMHEALHNHYTQKSLSLSPGKGGGGSGGGGSGGGGSFQPVLHLVALNSPLSGGMRGIRGADFQCFQQARAVGLAGTFRAGGGGRGD
- A570 nm/A630 nm (liver cancer cell Hep-G2; dose 1 μg/mL): 0.6746 ± 0.0372
- PI (%) (liver cancer cell Hep-G2; dose 1 μg/mL): 1.49%
- A570 nm/A630 nm (liver cancer cell Hep-G2; dose 2 μg/mL): 0.6132 ± 0.0253
- PI (%) (liver cancer cell Hep-G2; dose 2 μg/mL): 10.46%
- A570 nm/A630 nm (liver cancer cell Hep-G2; dose 4 μg/mL): 0.5799 ± 0.0396
- PI (%) (liver cancer cell Hep-G2; dose 4 μg/mL): 15.32%
- A570 nm/A630 nm (liver cancer cell Hep-G2; dose 8 μg/mL): 0.5499 ± 0.0215
- PI (%) (liver cancer cell Hep-G2; dose 8 μg/mL): 19.70%
- A570 nm/A630 nm (liver cancer cell Hep-G2; dose 16 μg/mL): 0.5190 ± 0.0185
- PI (%) (liver cancer cell Hep-G2; dose 16 μg/mL): 24.21%
- A570 nm/A630 nm (liver cancer cell Hep-G2; dose 32 μg/mL): 0.4706 ± 0.0374
- PI (%) (liver cancer cell Hep-G2; dose 32 μg/mL): 31.28%
- A570 nm/A630 nm (liver cancer cell Hep-G2; dose 64 μg/mL): 0.4256 ± 0.0268
- PI (%) (liver cancer cell Hep-G2; dose 64 μg/mL): 37.85%
- A570 nm/A630 nm (liver cancer cell Hep-G2; dose 128 μg/mL): 0.3801 ± 0.0174
- PI (%) (liver cancer cell Hep-G2; dose 128 μg/mL): 44.49%
- A570 nm/A630 nm (liver cancer cell Hep-G2; dose 256 μg/mL): 0.3156 ± 0.0151
- PI (%) (liver cancer cell Hep-G2; dose 256 μg/mL): 53.91%
- inhibitory effect on liver cancer cell Hep-G2 (liver cancer cell Hep-G2; in words): a certain inhibitory effect
- A570 nm/A630 nm ([1]; dose 1 μg/mL): 0.9859 ± 0.0397
- PI (%) ([1]; dose 1 μg/mL): 5.09%
- A570 nm/A630 nm ([1]; dose 2 μg/mL): 0.9552 ± 0.0419
- PI (%) ([1]; dose 2 μg/mL): 8.05%
- A570 nm/A630 nm ([1]; dose 4 μg/mL): 0.9150 ± 0.0283
- PI (%) ([1]; dose 4 μg/mL): 11.92%
- A570 nm/A630 nm ([1]; dose 8 μg/mL): 0.8806 ± 0.0345
- PI (%) ([1]; dose 8 μg/mL): 15.23%
- A570 nm/A630 nm ([1]; dose 16 μg/mL): 0.8110 ± 0.0298
- PI (%) ([1]; dose 16 μg/mL): 21.93%
- A570 nm/A630 nm ([1]; dose 32 μg/mL): 0.7546 ± 0.0274
- PI (%) ([1]; dose 32 μg/mL): 27.36%
- A570 nm/A630 nm ([1]; dose 64 μg/mL): 0.6945 ± 0.0326
- PI (%) ([1]; dose 64 μg/mL): 33.14%
- A570 nm/A630 nm ([1]; dose 128 μg/mL): 0.6589 ± 0.0287
- PI (%) ([1]; dose 128 μg/mL): 36.57%
- A570 nm/A630 nm ([1]; dose 256 μg/mL): 0.6012 ± 0.0311
- PI (%) ([1]; dose 256 μg/mL): 42.13%
- Swelling degree 1 h ([2]; 8 mg/kg): 0.29 ± 0.25 mL
- Swelling degree 3 h ([2]; 8 mg/kg): 0.34 ± 0.09 mL
- Swelling degree 5 h ([2]; 8 mg/kg): 0.36 ± 0.12 mL
- Swelling degree 7 h ([2]; 8 mg/kg): 0.41 ± 0.09 mL
- Swelling degree 1 h ([2]; 32 mg/kg): 0.27 ± 0.06 mL
- Swelling degree 3 h ([2]; 32 mg/kg): 0.41 ± 0.18 mL
- Swelling degree 5 h ([2]; 32 mg/kg): 0.37 ± 0.11 mL
- Swelling degree 7 h ([2]; 32 mg/kg): 0.33 ± 0.02 mL
- Swelling degree 1 h ([2]; 128 mg/kg): 0.21 ± 0.16 mL
- Swelling degree 3 h ([2]; 128 mg/kg): 0.32 ± 0.10 mL
- Swelling degree 5 h ([2]; 128 mg/kg): 0.41 ± 0.05 mL
- Swelling degree 7 h ([2]; 128 mg/kg): 0.36 ± 0.16 mL
- inhibition of toe swelling induced by carrageenan ([2]; high doses): could significantly inhibit toe swelling
- inhibition of toe swelling induced by carrageenan ([2]; low dose): not significant
- Blood flow ([3]; 0 min after administration): 22.9 ± 2.5 µL/min/mg
- Blood flow ([3]; 30 min after administration): 15.7 ± 1.3 µL/min/mg
- Blood flow ([3]; 60 min after administration): 13.9 ± 1.2 µL/min/mg
- choroidal blood flow ([3]; all observation time points): significantly increased

Reference: patent publication US11407811B2, “Fusion protein, preparation method therefor and use thereof” (JIANGSU RONGTAI BIOTECH CO., LTD., priority 2017, dated 2022)
